The values below are quoted from earlier work in patent publication US20100143424A1, “CASEIN NANOPARTICLE” (FUJIFILM CORPORATION, priority 2008, published 2010).

For this series the following is noted: casein derived from milk, Wako Pure Chemical Industries.

On to casein, for which the isoelectric point is listed as 4.3.
